# Tests used:
# Sle_13190 = molecular target: T1, Sle_13190 (Streptomyces leeuwenhoekii, UniProt A0A0F7VUW7); experiment: UV-vis spectrum of purified flavoprotein; FAD quantified after SDS unfolding; assay type: binding; settings: co-purified FAD
# T1 construct: full-length, fused to N-terminal His-tagged phosphite dehydrogenase (PTDH) in pCRE2, fusion kept; expressed in E. coli NEB 10-beta; FAD flavoprotein
# Sle_62070 = molecular target: T2, Sle_62070 (Streptomyces leeuwenhoekii, UniProt A0A0F7W6X7); experiment: as above; assay type: binding; settings: co-purified FAD
# T2 construct: full-length, fused to N-terminal His-tagged phosphite dehydrogenase (PTDH) in pCRE2, fusion kept; expressed in E. coli NEB 10-beta; FAD flavoprotein
# purified protein [1] = substrate: CC(=O)Cc1ccccc1; experiment: purified protein; settings: 150 uM NADPH, 10 uM FAD, 50 mM Tris-HCl pH 8.0, 10% glycerol, 100 mM NaCl, 2.5% 1,4-dioxane, 25 C
# purified protein [2] = substrate: O=C1CCC(c2ccccc2)CC1; experiment: purified protein; assay type: biochemical, Streptomyces leeuwenhoekii; settings: 150 uM NADPH, 10 uM FAD, 50 mM Tris-HCl pH 8.0, 10% glycerol, 100 mM NaCl, 2.5% 1,4-dioxane, 25 C
# purified protein [3] = substrate: O=C1CCCCC1c1ccccc1; experiment: purified protein; assay type: biochemical, Streptomyces leeuwenhoekii; settings: 150 uM NADPH, 10 uM FAD, 50 mM Tris-HCl pH 8.0, 10% glycerol, 100 mM NaCl, 2.5% 1,4-dioxane, 25 C
# purified protein [4] = substrate: O=C1CC2C=CCC12; experiment: purified protein; assay type: biochemical, Streptomyces leeuwenhoekii; settings: 150 uM NADPH, 10 uM FAD, 50 mM Tris-HCl pH 8.0, 10% glycerol, 100 mM NaCl, 2.5% 1,4-dioxane, 25 C
Molecule,UV-vis spectrum of purified flavoprotein; FAD quantified after SDS unfolding (Sle_13190),UV-vis spectrum of purified flavoprotein; FAD quantified after SDS unfolding (Sle_62070),Km (purified protein [1]) [µM],kcat (purified protein [1]) [s⁻¹],kcat/Km (purified protein [1]) [M⁻¹ s⁻¹],kcat (purified protein [2]) [s⁻¹],kcat/Km (purified protein [2]) [M⁻¹ s⁻¹],kcat (purified protein [3]) [s⁻¹],kcat/Km (purified protein [3]) [M⁻¹ s⁻¹],Km (purified protein [4]) [µM],kcat (purified protein [4]) [s⁻¹],kcat/Km (purified protein [4]) [M⁻¹ s⁻¹]
Cc1cc2nc3c(=O)[nH]c(=O)nc-3n(C[C@H](O)[C@H](O)[C@H](O)COP(=O)(O)OP(=O)(O)OC[C@H]3O[C@@H](n4cnc5c(N)ncnc54)[C@H](O)[C@@H]3O)c2cc1C [FAD],a clear yellow color was indicative of proper folding and FAD binding,a clear yellow color was indicative of proper folding and FAD binding,–,–,–,–,–,–,–,–,–,–
"Sle_62070 (Streptomyces leeuwenhoekii) (protein, full-length, fused to N-terminal His-tagged phosphite dehydrogenase (PTDH) in pCRE2, fusion kept; expressed in E. coli NEB 10-beta; FAD flavoprotein) MTQGQTLSPEELAGLRERYRLERERRVRPDGTRQYLAADAEFGYYAEDPYAGEPPEREPLRDRVDVAVVGGGFGGILAGARLRRRGVRRVRVIEKGGDFGGTWYWNRYPGIHCDIESHVYLPLLDETGYVPEWKYAPGEEIRRHAVRIAEKFDLYADAQFSTAVTSLTWDEETRAWVVATDRGDEFRATYVITATGTLSELKLPGIPGIETFEGHTFHTSRWDYAYTGGTPDGGLTGLADKRVGVVGTGATGIQVIPKLAEDAGHLYVFQRTPSSVDVRANRRTTPQDVGADRDGWARERRDNFLRIVSGETAEEDLVADQWTASAGLLEKLVPSFRRQGDRTAFEAAYEVADAAKMNEIRARVERIVTDRDTAEKLKPWYRYACKRPTFSDTYLQAFNRDNVTLVDTADTHGIERMTERGVVVGGTEYALDCLIFATGFSVGVSGVHSGRLPVRGRGGVQLLDAWRKEGPRTLHGFTSNGFPNLIQMGTVQNASSVNYTHVLDEQAVHAAALVAAAEAKGAVIEPSREAEDAWIAVLAEDAPDHEWFHAECTPGYYNAEGRGRAKGPTAYPHGASAFHELLRRWREESMDGILRAGTPVRGPGGSTVS",–,–,3000 ± 300,4.1,1300,> 4,1300,> 4,1300,200 ± 10,4 ± 0.06,20000

# Reference: publication PMC6058054, “Mining the Genome of Streptomyces leeuwenhoekii: Two New Type I Baeyer–Villiger Monooxygenases From Atacama Desert” (Frontiers in Microbiology, 2018)
